The text below walks through data of the Immune Epitope Database (IEDB).

What all share (test): IEDB peptide-MHC binding, purified MHC/competitive/radioactivity; filed as Kd, often an IC50 or EC50 that approximates it; ≥ and ≤ were set here for values at or beyond the usual limits of such assays
Test [1] deals with HLA-A*31:01.
Test [2] addresses HLA-A*11:01.
The target of test [3] is HLA-A*68:01.
Test [4] deals with HLA-A*03:01.
The target in test [5] is HLA-A*33:01.
The mark [6] stands for this setting: source organism: Vaccinia virus WR.
Setting [7] is: source organism: Mammarenavirus lassaense.
Setting [8] is: source organism: SARS coronavirus Tor2.
Setting [9] is: source organism: Lymphocytic choriomeningitis virus (strain Armstrong).
Setting [10] is: source organism: Mammarenavirus whitewaterense.
The mark [11] stands for this setting: source organism: Lassa virus Josiah.
Setting [12] is: source organism: Mammarenavirus guanaritoense.
The mark [13] stands for this setting: source organism: Mammarenavirus juninense.
Setting [14] is: source organism: Vaccinia virus Copenhagen.
Setting [15] is: source organism: Mammarenavirus brazilense.

As usually defined, the Kd is the constant that tells how readily two partners part at equilibrium. For ITDNGPMPY, the Kd in test [1] (setting [6]) stood at 1200 nM; in test [2] (setting [6]), 7.31 nM; in test [3] (setting [6]), 2470 nM; in test [4] (setting [6]), 5020 nM; in test [5] (setting [6]), 1600 nM.
For ITFFQEVPH, the Kd is 8040 nM in test [1] (setting [7]); 197 nM in test [2] (setting [7]); 72.5 nM in test [3] (setting [7]); 10800 nM in test [4] (setting [7]); at least 77700 nM in test [5] (setting [7]).
In the case of ITPTIEDDK, the Kd was at least 77900 nM in test [1] (setting [6]); 6560 nM in test [2] (setting [6]); 528 nM in test [3] (setting [6]); at least 78000 nM in test [4] (setting [6]); at least 77700 nM in test [5] (setting [6]).
With IVPEFAKQY, the Kd was at least 21300 nM in test [1] (setting [6]); 11800 nM in test [2] (setting [6]); 9120 nM in test [3] (setting [6]); at least 28200 nM in test [4] (setting [6]); at least 42900 nM in test [5] (setting [6]).
For the sequence IVTDLENRLK, the Kd in test [1] (setting [6]) is 548 nM; in test [2] (setting [6]), 309 nM; in test [3] (setting [6]) it was 310 nM; in test [4] (setting [6]), 25.4 nM; in test [5] (setting [6]) it was at least 26700 nM.
As to IVTFRERYSY, the Kd came out at 194 nM in test [1] (setting [6]); 144 nM in test [2] (setting [6]); 1020 nM in test [3] (setting [6]); 469 nM in test [4] (setting [6]); 14300 nM in test [5] (setting [6]).
In the case of IVTVTTKDY, the Kd in test [1] (setting [6]) is 8980 nM; in test [2] (setting [6]) it was at least 32600 nM; in test [3] (setting [6]) it was 1690 nM; in test [4] (setting [6]) it was 1930 nM; in test [5] (setting [6]) it was 18400 nM.
Take KAPNVISSK: the Kd is 175 nM in test [1] (setting [6]); 7.02 nM in test [2] (setting [6]); 155 nM in test [3] (setting [6]); 1.89 nM in test [4] (setting [6]); at least 22600 nM in test [5] (setting [6]).
As for KFYGPFVDR, the Kd in test [1] (setting [8]) came to 0.454 nM; in test [2] (setting [8]), 1420 nM; in test [3] (setting [8]), 3260 nM; in test [4] (setting [8]), 7680 nM; in test [5] (setting [8]), 2040 nM.
As to KLSSIKSKSR, the Kd in test [1] (setting [6]) was 104 nM; in test [2] (setting [6]) it was 9910 nM; in test [3] (setting [6]), 18600 nM; in test [4] (setting [6]) it was 514 nM; in test [5] (setting [6]), at least 27700 nM.
Consider KQIRSAAKK, for which the Kd in test [1] (setting [8]) was 1080 nM; in test [2] (setting [8]), 73.7 nM; in test [3] (setting [8]), 1330 nM; in test [4] (setting [8]), 43.1 nM; in test [5] (setting [8]) it was at least 77700 nM.
For the sequence KQMYKTPTLK, the Kd in test [1] (setting [8]) was 95.3 nM; in test [2] (setting [8]), 17.5 nM; in test [3] (setting [8]) it was 8220 nM; in test [4] (setting [8]), 2.31 nM; in test [5] (setting [8]), 11400 nM.
Turning to KTKISVEKIK, the Kd in test [1] (setting [6]) is 818 nM; in test [2] (setting [6]), 275 nM; in test [3] (setting [6]) it was at least 24700 nM; in test [4] (setting [6]), 4200 nM; in test [5] (setting [6]), at least 70000 nM.
For KVAGFAKFLK, the Kd in test [1] (setting [8]) was determined as 31.8 nM; in test [2] (setting [8]), 10.8 nM; in test [3] (setting [8]), 11.8 nM; in test [4] (setting [8]), 8.52 nM; in test [5] (setting [8]), 3180 nM.
Take KVILSEISFH: the Kd in test [1] (setting [9]) stood at 2070 nM; in test [2] (setting [9]) it was 812 nM; in test [3] (setting [9]) it was 12700 nM; in test [4] (setting [9]) it was 1370 nM; in test [5] (setting [9]) it was 16400 nM.
Turning to LFYVSSIFLH, the Kd in test [1] (setting [10]) came out at 319 nM; in test [2] (setting [10]) it was 2240 nM; in test [3] (setting [10]), 980 nM; in test [4] (setting [10]), 6040 nM; in test [5] (setting [10]), 73.7 nM.
Regarding LILCFTIKR, the Kd in test [1] (setting [8]) was found to be 9010 nM; in test [2] (setting [8]) it was 231 nM; in test [3] (setting [8]) it was 1410 nM; in test [4] (setting [8]), 1400 nM; in test [5] (setting [8]), 7030 nM.
On to LLHCVTESYK, for which the Kd in test [1] (setting [6]) is 207 nM; in test [2] (setting [6]) it was 128 nM; in test [3] (setting [6]), 23.6 nM; in test [4] (setting [6]) it was 14.7 nM; in test [5] (setting [6]) it was 3270 nM.
For the sequence LLRALRLTK, the Kd in test [1] (setting [8]) was 851 nM; in test [2] (setting [8]) it was 3860 nM; in test [3] (setting [8]), at least 59900 nM; in test [4] (setting [8]) it was 24.4 nM; in test [5] (setting [8]), at least 23900 nM.
On to LSCTKNNSHH, for which the Kd in test [1] (setting [11]) was at least 70000 nM; in test [2] (setting [11]) it was at least 63800 nM; in test [3] (setting [11]), at least 37400 nM; in test [4] (setting [11]), at least 70000 nM; in test [5] (setting [11]) it was at least 70000 nM.
For the sequence LSSKGLACY, the Kd is 13300 nM in test [1] (setting [6]); 5490 nM in test [2] (setting [6]); 8340 nM in test [3] (setting [6]); 777 nM in test [4] (setting [6]); at least 77700 nM in test [5] (setting [6]).
As for LSYVIGLLPH, the Kd in test [1] (setting [12]) is 8940 nM; in test [2] (setting [12]), at least 35800 nM; in test [3] (setting [12]) it was at least 70100 nM; in test [4] (setting [12]), 2260 nM; in test [5] (setting [12]), at least 70000 nM.
LTQIFEVYWY: the Kd in test [1] (setting [6]) amounted to 934 nM; in test [2] (setting [6]) it was 348 nM; in test [3] (setting [6]), 936 nM; in test [4] (setting [6]), 990 nM; in test [5] (setting [6]) it was 1260 nM.
MLQKEYMER: the Kd in test [1] (setting [11]) worked out at 100 nM; in test [2] (setting [11]) it was 1360 nM; in test [3] (setting [11]) it was 33.3 nM; in test [4] (setting [11]), 11000 nM; in test [5] (setting [11]), 193 nM.
For the sequence MRYTCLNSEK, the Kd in test [1] (setting [13]) is 5030 nM; in test [2] (setting [13]), at least 49100 nM; in test [3] (setting [13]) it was 10100 nM; in test [4] (setting [13]), 283 nM; in test [5] (setting [13]), 6780 nM.
As to NITLKIIETY, the Kd in test [1] (setting [6]) is 1210 nM; in test [2] (setting [6]) it was 414 nM; in test [3] (setting [6]) it was 444 nM; in test [4] (setting [6]), at least 70100 nM; in test [5] (setting [6]) it was at least 20700 nM.
Turning to NLFSKNILKY, the Kd was at least 70000 nM in test [1] (setting [6]); 16300 nM in test [2] (setting [6]); 8770 nM in test [3] (setting [6]); 656 nM in test [4] (setting [6]); at least 70000 nM in test [5] (setting [6]).
As to NSCSIGNVTR, the Kd is 34.1 nM in test [1] (setting [6]); 890 nM in test [2] (setting [6]); 6.73 nM in test [3] (setting [6]); at least 70100 nM in test [4] (setting [6]); 16.1 nM in test [5] (setting [6]).
With QFKQDAKYSH, the Kd in test [1] (setting [11]) was 18200 nM; in test [2] (setting [11]), at least 69700 nM; in test [3] (setting [11]), at least 70100 nM; in test [4] (setting [11]), at least 70000 nM; in test [5] (setting [11]), 10600 nM.
QFVDINRNNK: the Kd in test [1] (setting [6]) was 4.52 nM; in test [2] (setting [6]), 662 nM; in test [3] (setting [6]), 171 nM; in test [4] (setting [6]), 1880 nM; in test [5] (setting [6]) it was 763 nM.
Regarding QLMYALEPR, the Kd is 12800 nM in test [1] (setting [14]); 2460 nM in test [2] (setting [14]); 2950 nM in test [3] (setting [14]); 15200 nM in test [4] (setting [14]); 17300 nM in test [5] (setting [14]).
With QLPQGTTLPK, the Kd in test [1] (setting [8]) is 8640 nM; in test [2] (setting [8]), 396 nM; in test [3] (setting [8]), 317 nM; in test [4] (setting [8]), 52.5 nM; in test [5] (setting [8]), at least 37000 nM.
Consider QTQTYNIGK, for which the equilibrium dissociation constant (Kd) in test [1] (setting [6]) worked out at 316 nM; in test [2] (setting [6]) it was 7.03 nM; in test [3] (setting [6]), 8.83 nM; in test [4] (setting [6]), 143 nM; in test [5] (setting [6]) it was 2620 nM.
With RAIMATIQR, the Kd in test [1] (setting [8]) was determined as 45.7 nM; in test [2] (setting [8]), 90.9 nM; in test [3] (setting [8]), 72 nM; in test [4] (setting [8]), 2720 nM; in test [5] (setting [8]), 7140 nM.
Turning to RALKYDFNH, the Kd in test [1] (setting [15]) worked out at 65.2 nM; in test [2] (setting [15]) it was 4370 nM; in test [3] (setting [15]), 6970 nM; in test [4] (setting [15]), 5700 nM; in test [5] (setting [15]) it was 7170 nM.
For RLLHCVTESY, the Kd in test [1] (setting [6]) was determined as 31.3 nM; in test [2] (setting [6]) it was 40.2 nM; in test [3] (setting [6]), 598 nM; in test [4] (setting [6]) it was 72.7 nM; in test [5] (setting [6]), 6940 nM.
Take RNPYENVLYK: the dissociation constant (Kd) is at least 28800 nM in test [1] (setting [10]); 1500 nM in test [2] (setting [10]); 3490 nM in test [3] (setting [10]); 2310 nM in test [4] (setting [10]); at least 70000 nM in test [5] (setting [10]).
